T1: FcγRIIb extracellular domain with C-terminal His tag (human, UniProt P31994 43-217)
T1 construct: extracellular domain; also called 2b; FcgRIIb; not shown: His tag at the C terminus
T1 sequence (looked up): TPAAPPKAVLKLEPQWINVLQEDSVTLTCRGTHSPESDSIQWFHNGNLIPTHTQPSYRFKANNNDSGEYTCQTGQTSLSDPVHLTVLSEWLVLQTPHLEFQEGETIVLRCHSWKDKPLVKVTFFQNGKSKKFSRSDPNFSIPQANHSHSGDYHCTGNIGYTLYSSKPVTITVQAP

T2: FcγRIIb (human, UniProt P31994 43-217)
T2 construct: extracellular domain; Soluble extracellular domain with C-terminal His tag, used as analyte in Biacore; also called FcgRIIb; 2b; not shown: His tag attached to the C terminus
T2 sequence (looked up): T1 sequence (looked up)

B1: GpH7-A5/GpH7-B3 variant S267_19Q/GpL16-k0 (antibody, human IgG1, kappa)
heavy 1: not shown
heavy 2: not shown
light: DIVMTQSPLSLPVTPGEPASISCQASESLVHSNRNTYLHWYLQKPGQSPQLLIYKVSNRFSGVPDRFSGSGSGTDFTLKISRVEAEDVGVYYCSQNTHVPPTFGQGTKVEIERTVAAPSVFIFPPSDEQLKSGTASVVCLLNNFYPREAKVQWKVDNALQSGNSQESVTEQDSKDSTYSLSSTLTLSKADYEKHKVYACEVTHQGLSSPVTKSFNRGEC
notes: IgG1, anti-glypican-3; also called He Ab
B2: GpH7-A5/GpH7-B3 variant S267_03V/GpL16-k0 (antibody, human IgG1, kappa)
heavy 1: not shown
heavy 2: not shown
light: B1 light
notes: as for B1
B3: GpH7-A5/GpH7-B3 variant S239_03V/GpL16-k0 (antibody, human IgG1, kappa)
heavy 1: not shown
heavy 2: not shown
light: B1 light
notes: as for B1
B4: GpH7-A5/GpH7-B3 variant S239_08L/GpL16-k0 (antibody, human IgG1, kappa)
heavy 1: not shown
heavy 2: not shown
light: B1 light
notes: as for B1
B5: GpH7-A5/GpH7-B3 variant P238_08L/GpL16-k0 (antibody, human IgG1, kappa)
heavy 1: not shown
heavy 2: not shown
light: B1 light
notes: as for B1
B6: GpH7-A5/GpH7-B3 variant P238_19Q/GpL16-k0 (antibody, human IgG1, kappa)
heavy 1: not shown
heavy 2: not shown
light: B1 light
notes: as for B1
B7: GpH7-A5/GpH7-B3 variant V266_06M/GpL16-k0 (antibody, human IgG1, kappa)
heavy 1: not shown
heavy 2: not shown
light: B1 light
notes: as for B1
B8: GpH7-A5/GpH7-B3 variant P238_20W/GpL16-k0 (antibody, human IgG1, kappa)
heavy 1: not shown
heavy 2: not shown
light: B1 light
notes: as for B1
B9: GpH7-A5/GpH7-B3 variant S298_06M/GpL16-k0 (antibody, human IgG1, kappa)
heavy 1: not shown
heavy 2: not shown
light: B1 light
notes: as for B1
B10: GpH7-A5/GpH7-B3 variant N325_01G/GpL16-k0 (antibody, human IgG1, kappa)
heavy 1: not shown
heavy 2: not shown
light: B1 light
notes: as for B1
B11: GpH7-A5/GpH7-B3 variant Y300_19Q/GpL16-k0 (antibody, human IgG1, kappa)
heavy 1: not shown
heavy 2: not shown
light: B1 light
notes: as for B1
B12: GpH7-A5/GpH7-B3 variant S267_07I/GpL16-k0 (antibody, human IgG1, kappa)
heavy 1: not shown
heavy 2: not shown
light: B1 light
notes: as for B1
B13: GpH7-A5/GpH7-B3 variant P238_16H/GpL16-k0 (antibody, human IgG1, kappa)
heavy 1: not shown
heavy 2: not shown
light: B1 light
notes: as for B1
B14: GpH7-A5/GpH7-B3 variant P238_15Y/GpL16-k0 (antibody, human IgG1, kappa)
heavy 1: not shown
heavy 2: not shown
light: B1 light
notes: as for B1
B15: GpH7-A5/GpH7-B3 variant S239_05P/GpL16-k0 (antibody, human IgG1, kappa)
heavy 1: not shown
heavy 2: not shown
light: B1 light
notes: as for B1
B16: GpH7-A5/GpH7-B3 variant P238_06M/GpL16-k0 (antibody, human IgG1, kappa)
heavy 1: not shown
heavy 2: not shown
light: B1 light
notes: as for B1
B17: GpH7-A5/GpH7-B3 variant S267_08L/GpL16-k0 (antibody, human IgG1, kappa)
heavy 1: not shown
heavy 2: not shown
light: B1 light
notes: as for B1
B18: GpH7-A5/GpH7-B3 variant S239_01G/GpL16-k0 (antibody, human IgG1, kappa)
heavy 1: not shown
heavy 2: not shown
light: B1 light
notes: as for B1
B19: GpH7-A5/GpH7-B3 variant S267_14T/GpL16-k0 (antibody, human IgG1, kappa)
heavy 1: not shown
heavy 2: not shown
light: B1 light
notes: as for B1
B20: GpH7-A5/GpH7-B3 variant S298_08L/GpL16-k0 (antibody, human IgG1, kappa)
heavy 1: not shown
heavy 2: not shown
light: B1 light
notes: as for B1
B21: GpH7-A5/GpH7-B3 variant S267_01G/GpL16-k0 (antibody, human IgG1, kappa)
heavy 1: not shown
heavy 2: not shown
light: B1 light
notes: as for B1
B22: GpH7-A5/GpH7-B3 variant K326_20W/GpL16-k0 (antibody, human IgG1, kappa)
heavy 1: not shown
heavy 2: not shown
light: B1 light
notes: as for B1
B23: GpH7-A5/GpH7-B3 variant S267_10E/GpL16-k0 (antibody, human IgG1, kappa)
heavy 1: not shown
heavy 2: not shown
light: B1 light
notes: as for B1
B24: GpH7-A5/GpH7-B3 variant S239_06M/GpL16-k0 (antibody, human IgG1, kappa)
heavy 1: not shown
heavy 2: not shown
light: B1 light
notes: as for B1
B25: GpH7-A5/GpH7-B3 variant P238_04F/GpL16-k0 (antibody, human IgG1, kappa)
heavy 1: not shown
heavy 2: not shown
light: B1 light
notes: as for B1
B26: GpH7-A5/GpH7-B3 variant S239_07I/GpL16-k0 (antibody, human IgG1, kappa)
heavy 1: not shown
heavy 2: not shown
light: B1 light
notes: as for B1
B27: GpH7-A5/GpH7-B3 variant P271_09D/GpL16-k0 (antibody, human IgG1, kappa)
heavy 1: not shown
heavy 2: not shown
light: B1 light
notes: as for B1
B28: GpH7-A5/GpH7-B3 variant S267_06M/GpL16-k0 (antibody, human IgG1, kappa)
heavy 1: not shown
heavy 2: not shown
light: B1 light
notes: as for B1
B29: GpH7-A5/GpH7-B3 variant L235_09D/GpL16-k0 (antibody, human IgG1, kappa)
heavy 1: not shown
heavy 2: not shown
light: B1 light
notes: as for B1
B30: GpH7-A5/GpH7-B3 variant P238_03V/GpL16-k0 (antibody, human IgG1, kappa)
heavy 1: not shown
heavy 2: not shown
light: B1 light
notes: as for B1
B31: GpH7-A5/GpH7-B3 variant P271_10E/GpL16-k0 (antibody, human IgG1, kappa)
heavy 1: not shown
heavy 2: not shown
light: B1 light
notes: as for B1
B32: GpH7-A5/GpH7-B3 variant P271_08L/GpL16-k0 (antibody, human IgG1, kappa)
heavy 1: not shown
heavy 2: not shown
light: B1 light
notes: as for B1
B33: GpH7-A5/GpH7-B3 variant K326_16H/GpL16-k0 (antibody, human IgG1, kappa)
heavy 1: not shown
heavy 2: not shown
light: B1 light
notes: as for B1
B34: GpH7-A5/GpH7-B3 variant A327_01G/GpL16-k0 (antibody, human IgG1, kappa)
heavy 1: not shown
heavy 2: not shown
light: B1 light
notes: Heterodimerized anti-glypican-3 IgG1; alteration in the GpH7-B3 chain only; also called He Ab
B35: GpH7-A5/GpH7-B3 variant A327_18N/GpL16-k0 (antibody, human IgG1, kappa)
heavy 1: not shown
heavy 2: not shown
light: B1 light
notes: as for B34
B36: GpH7-A5/GpH7-B3 variant L328_04F/GpL16-k0 (antibody, human IgG1, kappa)
heavy 1: not shown
heavy 2: not shown
light: B1 light
notes: as for B34
B37: GpH7-A5/GpH7-B3 variant L235_04F/GpL16-k0 (antibody, human IgG1, kappa)
heavy 1: not shown
heavy 2: not shown
light: B1 light
notes: as for B34
B38: GpH7-A5/GpH7-B3 variant L328_06M/GpL16-k0 (antibody, human IgG1, kappa)
heavy 1: not shown
heavy 2: not shown
light: B1 light
notes: as for B34
B39: GpH7-A5/GpH7-B3 variant G237_13S/GpL16-k0 (antibody, human IgG1, kappa)
heavy 1: not shown
heavy 2: not shown
light: B1 light
notes: as for B34
B40: GpH7-A5/GpH7-B3 variant G236_10E/GpL16-k0 (antibody, human IgG1, kappa)
heavy 1: not shown
heavy 2: not shown
light: B1 light
notes: as for B34
B41: GpH7-A5/GpH7-B3 variant L234_20W/GpL16-k0 (antibody, human IgG1, kappa)
heavy 1: not shown
heavy 2: not shown
light: B1 light
notes: as for B34
B42: GpH7-A5/GpH7-B3 variant L328_02A/GpL16-k0 (antibody, human IgG1, kappa)
heavy 1: not shown
heavy 2: not shown
light: B1 light
notes: as for B34

Target: T3, FcγRIIIa extracellular domain with C-terminal His tag (human, UniProt P08637 17-208)
T3 construct: extracellular domain; also called 3a; FcgRIIIa; not shown: His tag at the C terminus
Assay: SPR (Biacore), relative to GpH7-A5/GpH7-B3/GpL16-k0 = 100

T3 sequence (P08637 17-208): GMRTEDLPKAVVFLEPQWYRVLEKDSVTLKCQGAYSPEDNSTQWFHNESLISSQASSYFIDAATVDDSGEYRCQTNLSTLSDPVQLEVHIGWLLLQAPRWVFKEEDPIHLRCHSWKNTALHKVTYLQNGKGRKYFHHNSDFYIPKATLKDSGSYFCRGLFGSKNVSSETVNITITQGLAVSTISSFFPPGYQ

He/Con_3a	Binder
65 % (control = 100)	B1
30.8 % (control = 100)	B2
76.6 % (control = 100)	B3
95.3 % (control = 100)	B4
75.5 % (control = 100)	B5
55.8 % (control = 100)	B6
85.8 % (control = 100)	B7
49.7 % (control = 100)	B8
92.6 % (control = 100)	B9
28 % (control = 100)	B10
96.3 % (control = 100)	B11
25.2 % (control = 100)	B12
30.7 % (control = 100)	B13
64.5 % (control = 100)	B14
14.9 % (control = 100)	B15
30.5 % (control = 100)	B16
19.5 % (control = 100)	B17

He/Con_3a	Binder
76.2 % (control = 100)	B18
45.6 % (control = 100)	B19
73.5 % (control = 100)	B20
53.8 % (control = 100)	B21
84.8 % (control = 100)	B22
91.9 % (control = 100)	B23
78.2 % (control = 100)	B24
46.7 % (control = 100)	B25
79.3 % (control = 100)	B26
93.1 % (control = 100)	B27
66 % (control = 100)	B28
91.6 % (control = 100)	B29
43.8 % (control = 100)	B30
93.6 % (control = 100)	B31
71 % (control = 100)	B32
96.1 % (control = 100)	B33

Target: T1, FcγRIIb extracellular domain with …
Assay: as above

He/Con_2b	Binder
218 % (control = 100)	B1
192 % (control = 100)	B2
108 % (control = 100)	B3
140 % (control = 100)	B4
204 % (control = 100)	B5
110 % (control = 100)	B6
251 % (control = 100)	B7
123 % (control = 100)	B8
102 % (control = 100)	B9
101 % (control = 100)	B10
108 % (control = 100)	B11
192 % (control = 100)	B12
115 % (control = 100)	B13
218 % (control = 100)	B14
102 % (control = 100)	B15
174 % (control = 100)	B16
109 % (control = 100)	B17

He/Con_2b	Binder
144 % (control = 100)	B18
104 % (control = 100)	B19
108 % (control = 100)	B20
105 % (control = 100)	B21
148 % (control = 100)	B22
379 % (control = 100)	B23
101 % (control = 100)	B24
312 % (control = 100)	B25
107 % (control = 100)	B26
120 % (control = 100)	B27
210 % (control = 100)	B28
106 % (control = 100)	B29
120 % (control = 100)	B30
109 % (control = 100)	B31
103 % (control = 100)	B32
119 % (control = 100)	B33

Target: T4, FcγRIa (human, UniProt P12314 16-292)
T4 construct: extracellular domain; Soluble extracellular domain with C-terminal His tag, used as analyte in Biacore; also called FcgRI; 1a; not shown: His tag attached to the C terminus
Assay: SPR (Biacore), antibody captured, FcγR as analyte; relative to GpH7-A5/GpH7-B3/GpL16-k0 = 100
Experimental: (§1) The heterodimerized antibodies He Abs in which one of the H chains was introduced with an alteration were assayed for their binding activities to each activating FcγR and inhibitory FcγR according to the method described in Example 4. […] The activating FcγRs in FIGS. 26, 27, 28, and 29 are FcγRIa, FcγRIIa (R), FcγRIIa (H), and FcγRIIIa, respectively.
(§2) Analysis of interaction between objective antibody and the FcγR was carried out using Biacore T100 (GE Healthcare). HBS-EP+ (GE Healthcare) was used as the running buffer, and the measurement temperature was set to 25° C. Chips produced by immobilizing the antigen peptide by the amine coupling method to a Series S Sencor Chip CM5 (GE Healthcare), or alternatively, chips produced by allowing preliminarily biotinylated antigen peptides to interact with and immobilize onto a Series S Sensor Chip SA (certified) (GE Healthcare) were used. Antibodies of interest were captured onto an antigen peptide-immobilized chip, and allowed to interact to each FcγR diluted with running buffer. To regenerate and repeatedly use the chip, the antibodies captured on the chip were washed off by reacting 10 mM glycine-HCl, pH 1.5.

T4 sequence (P12314 16-292): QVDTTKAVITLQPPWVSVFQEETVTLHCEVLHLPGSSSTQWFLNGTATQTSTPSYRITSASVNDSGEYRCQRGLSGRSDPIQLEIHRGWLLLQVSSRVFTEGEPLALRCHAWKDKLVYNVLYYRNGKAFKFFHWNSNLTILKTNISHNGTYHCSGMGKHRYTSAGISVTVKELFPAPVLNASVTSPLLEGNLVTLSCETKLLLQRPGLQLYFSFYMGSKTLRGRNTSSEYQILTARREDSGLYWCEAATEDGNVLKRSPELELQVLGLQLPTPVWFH

He/Con_1a	Binder
99 % of control (=100)	B34
97.7 % of control (=100)	B35
97.9 % of control (=100)	B36
97.1 % of control (=100)	B37
98.7 % of control (=100)	B38
92.2 % of control (=100)	B39
93.7 % of control (=100)	B40
98.6 % of control (=100)	B41
98.5 % of control (=100)	B42

Target: T2, FcγRIIb
Assay: as above
Experimental: as §1, §2

He/Con_2b	Binder
116 % of control (=100)	B34
113 % of control (=100)	B35
219 % of control (=100)	B36
118 % of control (=100)	B37
142 % of control (=100)	B38
111 % of control (=100)	B39
110 % of control (=100)	B40
114 % of control (=100)	B41
144 % of control (=100)	B42

From patent publication US20150344570A1 (published 2015)
